# According to article PMC12714700:
# Molecular target: SARS-CoV-2 Delta spike-ferritin fusion protein (Delta spike-ferritin VLP antigen) (SARS-CoV-2 (Delta variant) | Helicobacter pylori) (UniProt P0DTC2)
# Test: cryo-EM structure
substance,measurement,value
SARS-CoV-2 Delta spike-ferritin fusion protein (Delta spike-ferritin VLP antigen) (from UniProt P0DTC2 14-1163),stoichiometry N,24
